Laboratory results as given in US20200140551A1 (GlaxoSmithKline, published 2020).
Residue numbers refer to the chain shown, from its start.

Legend:
Human ICOS -Fc = target: T1, Human ICOS -Fc (human; rabbit, UniProt Q9Y6W8 21-140); assay: SPR, BIAcore T200; antibody captured on anti-human IgG (CM5), ICOS (rabbit Fc) as analyte at 1-256 nM, 25°C, 1:1 model
T1 construct: analyte in the BIAcore T200 run; also called Human ICOS (rabbit Fc); not shown: rabbit Fc
T1 sequence: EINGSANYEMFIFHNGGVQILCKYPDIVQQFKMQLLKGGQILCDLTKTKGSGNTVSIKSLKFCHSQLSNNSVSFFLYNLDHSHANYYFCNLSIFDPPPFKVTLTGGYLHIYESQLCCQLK
Experimental: (§1) The binding kinetics affinity of the humanized H2L5 hIgG4PE antibody was determined used the BIAcore T200 Anti-human IgG on Fc2 of a CM5 chip Anti-ICOS H2L5 hIgG4PE captured on the surface. Anti-human IgG surface blocked with […] hIgG1 control to prevent non-specific binding of rabbit Fc. Human and cyno ICOS (rabbit Fc) passed over the captured antibodies at 256 nM, 64 nM, 16 nM, 4 nM and 1 nM. Buffer alone was used to double reference binding curves. MgCl₂ was used to regenerate surface. Run carried out at 25° C. Data fitted to 1:1 model using T200 evaluation software. Antibody concentration: 2.5 μg/mL
(§2) The ICOS binding data was fitted to a 1:1 kinetics model using the T200 data analysis software.

Cyno ICOS-Fc = target: T2, Cyno ICOS-Fc (cynomolgus; rabbit, UniProt A0A2K5TQR6 21-140); assay: as above
T2 construct: analyte in the BIAcore T200 run; also called cyno ICOS (rabbit Fc); cynomolgus ICOS; not shown: Rabbit Fc and any linker
T2 sequence: T1 sequence with H81R
Experimental: as §1, §2

[1] = target: T3, human ICOS on human T cells (human, UniProt Q9Y6W8 21-167); assay: flow cytometry, activated human CD4 T cells, percent FITC positive, mean of donors
T3 construct: endogenous receptor on primary cells; also called ICOS on CD4+ and CD8+ T cells of healthy human donors
T3 sequence: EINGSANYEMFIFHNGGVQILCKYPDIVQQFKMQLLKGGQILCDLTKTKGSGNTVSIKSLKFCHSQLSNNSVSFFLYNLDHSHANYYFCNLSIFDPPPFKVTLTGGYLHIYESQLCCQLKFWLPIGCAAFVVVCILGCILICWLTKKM
Experimental: (§3) Binding of H2L5 hIgG4PE was assessed in both naive and activated CD3+ T cells.
(§4) Either naive and/or activated CD3+ T cells were re-suspended in PBS with 0.1% BSA (FACS Buffer) containing Human FcR Blocking Solution at 2×10⁶ cells/mL (5 μl FcR Blocking Solution+[…] FACS Buffer per 1 mL). At a concentration of 2×10⁵ cells/well, 100 μl cells were placed into 2 mL 96 well Assay Blocks and incubated at room temperature for 15 minutes. During the incubation, a titration of the binding antibodies, anti-ICOS (H2L5 hIgG4PE) or IgG4 Isotype Control antibody was prepared as a 2× concentration. […] Following the binding incubation, cells were washed twice in 1 mL of FACS buffer, centrifuging at 400×g for 5 minutes at room temperature.
(§5) Data acquisition and compensation were performed on BD FACS instruments, LSR Fortessa X-20 or FACS Canto II using BD Diva (ver. 8.0) software. Data analysis employed Flow Jo software (ver.10.0.8r1). Results are reported as both MFI (Median Fluorescence Intensity) and Percent of cells positive for human IgG kappa light chain FITC staining out of the total live cells or appropriate parent population. EC50s were determined using Graphpad Prism 5 software (ver. 5.04) with non-linear regression of transformed data (X=(log(X)) using a variable slope with 4 parameters (log(Agonist) vs. response—Variable slope).

[2] = target: T3, human ICOS on human T cells; assay: flow cytometry, activated human CD8 T cells, FITC MFI, median of donors
Experimental: as §4, §5

[3] = target: T3, human ICOS on human T cells; assay: flow cytometry, activated human CD4 T cells, percent FITC positive, donor 1149M52
Experimental: as §3, §4, §5

[4] = target: T3, human ICOS on human T cells; assay: flow cytometry, activated human CD4 T cells, FITC MFI, donor 1123F59
Experimental: as §3, §4, §5

human FcγR IIIa V158 = target: T4, human FcγR IIIa V158 (human, UniProt P08637 17-208); assay: affinity to human Fcγ receptors (Table 6; NB = no binding); method not described
T4 construct: allotype with Val at position 158 as printed
T4 sequence (P08637 17-208 F176V limits assumed): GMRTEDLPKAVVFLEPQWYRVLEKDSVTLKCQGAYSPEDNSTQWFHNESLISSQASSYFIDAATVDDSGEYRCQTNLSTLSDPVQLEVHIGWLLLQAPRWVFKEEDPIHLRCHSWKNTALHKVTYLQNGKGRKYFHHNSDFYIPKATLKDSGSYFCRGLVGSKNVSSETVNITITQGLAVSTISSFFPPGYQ

human FcγR IIa H131 = target: T5, human FcγR IIa H131 (human, UniProt P12318 36-218, limits assumed); assay: as above
T5 sequence (looked up): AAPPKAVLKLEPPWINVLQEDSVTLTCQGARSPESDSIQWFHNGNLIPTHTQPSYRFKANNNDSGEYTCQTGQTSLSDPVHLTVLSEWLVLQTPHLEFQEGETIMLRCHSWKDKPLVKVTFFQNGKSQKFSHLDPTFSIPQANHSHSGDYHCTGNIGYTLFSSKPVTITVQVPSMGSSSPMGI

human FcγR IIIa F158 = target: T6, human FcγR IIIa F158 (human, UniProt P08637 17-208); assay: as above
T6 construct: allotype with Phe at position 158 as printed
T6 sequence (P08637 17-208 limits assumed): as the sequence (P08637 17-208 F176V limits assumed) above, with V160F counted along it

[5] = target: T3, human ICOS on human T cells; assay: flow cytometry, activated human CD4 T cells, percent FITC positive, donor 1141F45
Experimental: as §4, §5

[6] = target: T3, human ICOS on human T cells; assay: flow cytometry, activated human CD8 T cells, FITC MFI, donor 1149M52
Experimental: as §3, §4, §5

human ICOS = target: T7, human ICOS (human, UniProt Q9Y6W8 21-140, limits assumed); assay: MSD competition assay: inhibition of ICOS-L binding to ICOS by titrated antibody, bar chart in raw luminescence units
T7 sequence: T1 sequence

B1: H2L5 hIgG4PE (antibody)
heavy: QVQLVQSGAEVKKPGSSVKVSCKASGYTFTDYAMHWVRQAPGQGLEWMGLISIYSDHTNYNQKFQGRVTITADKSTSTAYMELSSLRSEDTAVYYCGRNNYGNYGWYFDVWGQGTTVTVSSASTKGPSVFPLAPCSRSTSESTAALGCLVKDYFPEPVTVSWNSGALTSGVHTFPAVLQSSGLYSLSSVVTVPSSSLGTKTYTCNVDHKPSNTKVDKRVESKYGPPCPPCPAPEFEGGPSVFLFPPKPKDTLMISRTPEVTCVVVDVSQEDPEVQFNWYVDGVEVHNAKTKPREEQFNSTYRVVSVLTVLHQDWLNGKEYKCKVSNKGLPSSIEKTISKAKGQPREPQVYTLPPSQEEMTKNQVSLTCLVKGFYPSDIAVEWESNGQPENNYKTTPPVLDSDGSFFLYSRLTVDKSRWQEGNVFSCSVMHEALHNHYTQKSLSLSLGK
light: EIVLTQSPATLSLSPGERATLSCSASSSVSYMHWYQQKPGQAPRLLIYDTSKLASGIPARFSGSGSGTDYTLTISSLEPEDFAVYYCFQGSGYPYTFGQGTKLEIKRTVAAPSVFIFPPSDEQLKSGTASVVCLLNNFYPREAKVQWKVDNALQSGNSQESVTEQDSKDSTYSLSSTLTLSKADYEKHKVYACEVTHQGLSSPVTKSFNRGEC
notes: also called 422 H2L5 hIgG4PE; H2L5 IgG4PE; copies: 2 + 2
Question: How did the Kd (Human ICOS -Fc) turn out when B1 was run?
Answer: Its Kd is 1.34 nM.

Question: What about the koff (Human ICOS -Fc) of the same binder?
Answer: Its koff is 0.000396 s⁻¹.

Question: And the kon (Human ICOS -Fc)?
Answer: Its kon is 297000 M⁻¹ s⁻¹.

Question: What about the Kd (Cyno ICOS-Fc) of the same binder?
Answer: The Kd was 0.949 nM.

Question: What about the koff (Cyno ICOS-Fc) of the same binder?
Answer: Its koff is 0.000371 s⁻¹.

Question: What about the kon (Cyno ICOS-Fc) of the same binder?
Answer: The kon was 391000 M⁻¹ s⁻¹.

Question: And the EC50 [1]?
Answer: The EC50 was 0.763 µg/mL.

Question: What about the EC50 [2] of the same binder?
Answer: The EC50 was 0.652 µg/mL.

Question: What about the EC50 [3] of the same binder?
Answer: Its EC50 is 0.882 µg/mL.

Question: And the EC50 [4]?
Answer: The EC50 was 1.04 µg/mL.

Question: Does B1 bind (human FcγR IIIa V158)?
Answer: Result: no binding

Question: Does B1 bind (human FcγR IIa H131)?
Answer: Result: no binding

Question: Does B1 bind (human FcγR IIIa F158)?
Answer: Result: no binding

Question: And the EC50 [5]?
Answer: Its EC50 is 0.965 µg/mL.

Question: What about the EC50 [6] of the same binder?
Answer: The EC50 was 0.74 µg/mL.

Question: What about the “IC50 (read off the curve)” value (human ICOS) of the same binder?
Answer: The value was about 2 µg/mL.
